± gives the uncertainty stated by the source.
B1: CD2-associated protein, residues 109 to 169; numbered along this chain, Q9Y5K6 (parent)
chain: KKRQCKVLFEYIPQNEDELELKVGDIIDINEEVEEGWWSGTLNNKLGLFPSNFVKELEVTD
B2: Dynamin-binding protein, residues 146 to 206; numbered along this chain, Q6XZF7 (parent)
chain: SMGQARALMGLSAQLDEELDFREGDVITIIGVPEPGWFEGELEGRRGIFPEGFVELLGPLR

Variants of: B1
Test: abundance fitness (aPCA) (normalised: wild type 0, dead -1); higher = more abundant; growth selection in yeast, the domain comes from the species named
Conditions: Homo sapiens

Variant | abundance fitness
I26D | -0.599 ± 0.31
E34Y | -0.126 ± 0.22
E34K | 0.299 ± 0.3
E32C | -0.274 ± 0.3
K1D | 0.195 ± 0.38
K1Q | -0.316 ± 0.19
I29H | -0.482 ± 0.28
V59I | -0.087 ± 0.13
F53S | 0.037 ± 0.096
N30V | 0.101 ± 0.15
L42A | -0.391 ± 0.12
L57P | -0.508 ± 0.23
L57I | 0.241 ± 0.18
L21V | -0.678 ± 0.22
L21M | -0.319 ± 0.37
E56F | -0.406 ± 0.21
F49G | -1.06 ± 0.27
R3V | -0.316 ± 0.076
T41E | -0.05 ± 0.17
K55T | -0.163 ± 0.11
K55S | -0.259 ± 0.08
K55R | 0.017 ± 0.064
Y11S | -0.572 ± 0.15
V33E | -0.192 ± 0.2
Q14H | -0.509 ± 0.42
N52P | -0.228 ± 0.12
E20C | 0.107 ± 0.24
N15H | -0.148 ± 0.16
N15T | -0.097 ± 0.1
N15R | 0.153 ± 0.078

Variants of: B2
Test: as above
Conditions: Homo sapiens

Variant | abundance fitness
A13P | 0.013 ± 0.078
A13E | -0.57 ± 0.18
A13I | -0.541 ± 0.077
G40Q | -0.974 ± 0.26
G40E | -0.685 ± 0.15
G40P | -0.502 ± 0.095
Q4M | -0.065 ± 0.13
Q4L | -0.176 ± 0.047
L57V | -0.24 ± 0.044
L57R | -0.43 ± 0.053
L57T | -0.437 ± 0.055
L57N | -0.375 ± 0.052
L57Y | -0.578 ± 0.061
L57M | -0.251 ± 0.081
L57H | -0.629 ± 0.077
F21I | -0.435 ± 0.065
P59K | -0.889 ± 0.35
P59T | -0.685 ± 0.18
F49D | -0.74 ± 0.097
F38K | -0.503 ± 0.098
F38H | -1.08 ± 0.16
E41N | -0.608 ± 0.071
E41M | -0.211 ± 0.093

Variant | abundance fitness
I30R | -0.284 ± 0.11
I30M | -0.481 ± 0.27
I30Y | -0.286 ± 0.15
I30K | -0.129 ± 0.14
E18K | 0.23 ± 0.38
L60P | -0.368 ± 0.19
G47V | -0.719 ± 0.069
G47E | -0.962 ± 0.37
G47L | -0.696 ± 0.11
G47D | -0.804 ± 0.27
L8T | 0.014 ± 0.057
R6N | -0.763 ± 0.094
G10R | -0.014 ± 0.055
G10E | -0.14 ± 0.09
G10Q | -0.016 ± 0.12
R61Y | -0.148 ± 0.098
R61T | -0.046 ± 0.072
R61I | -0.135 ± 0.13
R61L | 0.336 ± 0.35
R61S | -0.017 ± 0.068
R61E | -0.018 ± 0.15
R61C | -0.234 ± 0.11
R61N | -0.054 ± 0.077

Variant | abundance fitness
A7T | -0.296 ± 0.21
A7F | -1.01 ± 0.21
G52I | 0.04 ± 0.16
S1N | -0.049 ± 0.11
S1C | -0.077 ± 0.056
S1M | 0.073 ± 0.3
S1V | 0.076 ± 0.11
S1W | -0.16 ± 0.27
S1H | -0.104 ± 0.12
V26N | -0.594 ± 0.078
V26T | -0.319 ± 0.075
V26W | -0.554 ± 0.1
V26P | -0.64 ± 0.12
V26C | -0.45 ± 0.047
L15F | 0.037 ± 0.052
L15G | 0.08 ± 0.082
L15Q | 0.137 ± 0.076
V54E | -0.81 ± 0.38
V54I | -0.947 ± 0.24
I27S | -0.753 ± 0.054
E51P | -0.792 ± 0.33
E51F | -0.621 ± 0.32
E51N | -0.66 ± 0.15

Variant | abundance fitness
L11Q | 0.191 ± 0.072
E55N | -0.939 ± 0.28
I29P | -0.595 ± 0.21
I29F | -0.924 ± 0.2
G31W | -0.955 ± 0.36
G31Y | -0.975 ± 0.42
G31K | -0.085 ± 0.24
M2I | -0.03 ± 0.058
L42T | -0.769 ± 0.12
L42K | -0.316 ± 0.14
E34G | -0.379 ± 0.16
E34A | -0.42 ± 0.28
E34M | -0.398 ± 0.3
E34Q | -0.364 ± 0.21
R22Y | -0.352 ± 0.19
R22I | -0.191 ± 0.064
R22L | -0.282 ± 0.14
R22W | -0.542 ± 0.11
P35G | -0.743 ± 0.11
P35R | -0.309 ± 0.077
P35W | -0.926 ± 0.34
P35F | -0.717 ± 0.18
P35D | -0.062 ± 0.098

Variant | abundance fitness
P35T | -0.064 ± 0.088
P33Y | -0.587 ± 0.14
P33F | -0.693 ± 0.33
P33D | -1.11 ± 0.35
P33R | -0.155 ± 0.071
P33W | -0.711 ± 0.19
P33G | -0.469 ± 0.12
L56R | -0.399 ± 0.12
L56I | -0.42 ± 0.13
L56V | -0.152 ± 0.087
P50K | -0.212 ± 0.17
P50V | -1.02 ± 0.12
P50L | -0.655 ± 0.089
P50Q | -0.314 ± 0.13
P50G | -0.621 ± 0.072
P50S | -0.674 ± 0.068
P50R | -0.068 ± 0.061
I48G | -1.01 ± 0.095
I48R | 0.012 ± 0.11
I48V | -0.007 ± 0.041
Q14K | -0.092 ± 0.29
Q14Y | -0.537 ± 0.16
Q14R | 0.142 ± 0.08

Variant | abundance fitness
Q14D | -0.145 ± 0.058
T28E | 0.016 ± 0.17
G24A | -0.551 ± 0.079
G24F | -0.82 ± 0.1
G24W | -0.891 ± 0.21
G24T | -0.818 ± 0.12
G36D | -0.824 ± 0.23
G36R | -0.709 ± 0.077
L19K | -0.705 ± 0.35
L19D | -0.413 ± 0.17
G44H | -0.665 ± 0.1
G58E | 0.082 ± 0.15
V32Q | 0.189 ± 0.1
V32C | -0.12 ± 0.06
V32N | -0.232 ± 0.17
V32K | -0.349 ± 0.19
G3W | -0.227 ± 0.072
G3N | 0.245 ± 0.043
D25K | -1.03 ± 0.21
D25M | -0.724 ± 0.14
A5C | -0.302 ± 0.067
A5K | -0.696 ± 0.39

From the Human Domainome abundance scans (Beltran et al. 2025)
